From patent publication US20250189530A1 (STCUBE, published 2025)

What was measured:
[1] = target: TRIM variant expressed by HEK293T cells; experiment: western blot, relative to WT
[2] = target: peptide 4 variant D366A expressed by HEK293T cells (human); experiment: western blot, relative to WT
[3] = target: peptide 4 variant G373A expressed by HEK293T cells (human); experiment: western blot, relative to WT
[4] = target: peptide 4 variant I372A expressed by HEK293T cells (human); experiment: western blot, relative to WT
[5] = target: peptide 4 variant R367A expressed by HEK293T cells (human); experiment: western blot, relative to WT
[6] = target: peptide 4 variant V362A expressed by HEK293T cells (human); experiment: western blot, relative to WT
[7] = target: peptide 4 variant V364A expressed by HEK293T cells (human); experiment: western blot, relative to WT
[8] = target: peptide 4 variant W370A expressed by HEK293T cells (human); experiment: western blot, relative to WT
[9] = target: TRIM variant expressed by HEK293T cells; experiment: western blot, HEK293T lysate, antibody 1 ug/ml
[10] = target: peptide 4 WT expressed by HEK293T cells (human); experiment: western blot, HEK293T lysate, antibody 1 ug/ml
[11] = target: peptide 4 variant A371G expressed by HEK293T cells (human); experiment: western blot, HEK293T lysate, antibody 1 ug/ml
[12] = target: peptide 4 variant C375A expressed by HEK293T cells (human); experiment: western blot, HEK293T lysate, antibody 1 ug/ml
[13] = target: peptide 4 variant D366A expressed by HEK293T cells (human); experiment: western blot, HEK293T lysate, antibody 1 ug/ml
[14] = target: peptide 4 variant D369A expressed by HEK293T cells (human); experiment: western blot, HEK293T lysate, antibody 1 ug/ml
[15] = target: peptide 4 variant E361A expressed by HEK293T cells (human); experiment: western blot, HEK293T lysate, antibody 1 ug/ml
[16] = target: peptide 4 variant E363A expressed by HEK293T cells (human); experiment: western blot, HEK293T lysate, antibody 1 ug/ml
[17] = target: peptide 4 variant G365A expressed by HEK293T cells (human); experiment: western blot, HEK293T lysate, antibody 1 ug/ml
[18] = target: peptide 4 variant G373A expressed by HEK293T cells (human); experiment: western blot, HEK293T lysate, antibody 1 ug/ml
[19] = target: peptide 4 variant I372A expressed by HEK293T cells (human); experiment: western blot, HEK293T lysate, antibody 1 ug/ml
[20] = target: peptide 4 variant R367A expressed by HEK293T cells (human); experiment: western blot, HEK293T lysate, antibody 1 ug/ml
[21] = target: peptide 4 variant T368A expressed by HEK293T cells (human); experiment: western blot, HEK293T lysate, antibody 1 ug/ml
[22] = target: peptide 4 variant V362A expressed by HEK293T cells (human); experiment: western blot, HEK293T lysate, antibody 1 ug/ml
[23] = target: peptide 4 variant V364A expressed by HEK293T cells (human); experiment: western blot, HEK293T lysate, antibody 1 ug/ml
[24] = target: peptide 4 variant V374A expressed by HEK293T cells (human); experiment: western blot, HEK293T lysate, antibody 1 ug/ml
[25] = target: peptide 4 variant W370A expressed by HEK293T cells (human); experiment: western blot, HEK293T lysate, antibody 1 ug/ml
[26] = target: T1, BTN1A1 peptide 4 Mutant 8 (T368A) (human); experiment: kinetics of peptide on STC43H11-1, separate assay, method not named
T1 construct: The entry already carries the mutation; also called BTN1A1-pep4- Mutant 8
T1 peptide: EVEVGDRADWAIGVC

[27] = target: T2, BTN1A1 peptide 4 Mutant 9 (D369A) (human); experiment: as above
T2 construct: The entry already carries the mutation; also called BTN1A1-pep4- Mutant 9
T2 peptide: EVEVGDRTAWAIGVC

[28] = target: T3, BTN1A1 peptide 4 Mutant 10 (W370A) (human); experiment: as above
T3 construct: The entry already carries the mutation; also called BTN1A1-pep4- Mutant 10; mutant peptide #10
T3 peptide: EVEVGDRTDAAIGVC

[29] = target: T4, BTN1A1 peptide 4 Mutant 11 (A371G) (human); experiment: as above
T4 construct: The entry already carries the mutation; also called BTN1A1-pep4- Mutant 11
T4 peptide: EVEVGDRTDWGIGVC

[30] = target: T5, BTN1A1 peptide 4 Mutant 12 (I372A) (human); experiment: as above
T5 construct: The entry already carries the mutation; also called Mutant 12 (1372A); BTN1A1-pep4- Mutant 12
T5 peptide: EVEVGDRTDWAAGVC

[31] = target: T6, BTN1A1 peptide 4 Mutant 5 (G365A) (human); experiment: as above
T6 construct: The entry already carries the mutation; also called BTN1A1-pep4- Mutant 5
T6 peptide: EVEVADRTDWAIGVC

[32] = target: T7, BTN1A1 peptide 4 Mutant 6 (D366A) (human); experiment: as above
T7 construct: The entry already carries the mutation; also called BTN1A1-pep4- Mutant 6; mutant peptide #6
T7 peptide: EVEVGARTDWAIGVC

[33] = target: T8, BTN1A1 peptide 4 Mutant 7 (R367A) (human); experiment: as above
T8 construct: The entry already carries the mutation; also called BTN1A1-pep4- Mutant 7
T8 peptide: EVEVGDATDWAIGVC

% binding Rel. Quant. [1]: -0.213% | % binding Rel. Quant. [2]: -8.55% | % binding Rel. Quant. [3]: 2.25% | % binding Rel. Quant. [4]: 0.127% | % binding Rel. Quant. [5]: 50.1% | % binding Rel. Quant. [6]: 247% | % binding Rel. Quant. [7]: 26.8% | % binding Rel. Quant. [8]: 8.25% | STC43H11-1 Adj. Vol. (Int) [9]: -7610 | STC43H11-1 Adj. Vol. (Int) [10]: 4.02e+06 | STC43H11-1 Adj. Vol. (Int) [11]: 156000 | STC43H11-1 Adj. Vol. (Int) [12]: 4.8e+06 | STC43H11-1 Adj. Vol. (Int) [13]: -228000 | STC43H11-1 Adj. Vol. (Int) [14]: 5470 | STC43H11-1 Adj. Vol. (Int) [15]: 1.35e+06 | STC43H11-1 Adj. Vol. (Int) [16]: 2.61e+06 | STC43H11-1 Adj. Vol. (Int) [17]: 2.26e+06 | STC43H11-1 Adj. Vol. (Int) [18]: 19900 | STC43H11-1 Adj. Vol. (Int) [19]: 4010 | STC43H11-1 Adj. Vol. (Int) [20]: 1.48e+06 | STC43H11-1 Adj. Vol. (Int) [21]: 374000 | STC43H11-1 Adj. Vol. (Int) [22]: 7.03e+06 | STC43H11-1 Adj. Vol. (Int) [23]: 480000 | STC43H11-1 Adj. Vol. (Int) [24]: 672000 | STC43H11-1 Adj. Vol. (Int) [25]: 221000 | Kd [26]: 1.77 nM | koff [26]: 0.000822 s⁻¹ | kon [26]: 464000 M⁻¹ s⁻¹ | Kd [27]: 39.1 nM | koff [27]: 0.0101 s⁻¹ | kon [27]: 258000 M⁻¹ s⁻¹ | Kd [28]: 4.95 nM | koff [28]: 0.00106 s⁻¹ | kon [28]: 215000 M⁻¹ s⁻¹ | Kd [29]: 1.39 nM | koff [29]: 0.000425 s⁻¹ | kon [29]: 306000 M⁻¹ s⁻¹ | Kd [30]: 10.6 nM | koff [30]: 0.000778 s⁻¹ | kon [30]: 73600 M⁻¹ s⁻¹ | Kd [31]: 1.72 nM | koff [31]: 0.000146 s⁻¹ | kon [31]: 84800 M⁻¹ s⁻¹ | Kd [32]: 13.5 nM | koff [32]: 0.00082 s⁻¹ | kon [32]: 60900 M⁻¹ s⁻¹ | Kd [33]: 0.339 nM | koff [33]: 0.000153 s⁻¹ | kon [33]: 453000 M⁻¹ s⁻¹
B1: STC43H11-1 (antibody, V domains shown)
VH: QSLEESGGRLVTPGGSLTLTCTVSGIDLSSYAMGWVRQAPGEGLEWIGSIGTGGGTGYASWAKGRFTISKTSTTVDLKMTSLTASDTATYFCATSNLWGPGTLVTVSS
VL: QVLTQTASPVSAAVGGTVTINCQASQSVYNNNRCSWFQQKPGQPPKRLIYHTSTLDSGVPSRFKGSGSGTQFTLTISDVQCDDAATYYCLGNYDCSRADCAAFGGGTEVVVK
notes: From immunized New Zealand rabbits; IgG heavy chain and Kappa light chain; also called clone #43H11; Clone 43H11
